For the test, the target named is T1, LEDGF/p75 IBD (Homo sapiens, UniProt O75475).
T1 chain: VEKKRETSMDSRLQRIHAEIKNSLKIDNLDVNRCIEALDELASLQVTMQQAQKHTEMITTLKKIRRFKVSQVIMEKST
As to the kind of experiment: NMR.

B1: MLL 123-160 (peptide)
chain: GTNLRRFRAVFGESGGGGGSGEDEQFLGFGSDEEVRVR
For B1, the Kd is 64 µM.

The Kd is the concentration at which binding is half-saturated. Low values mean tighter binding, high ones weaker binding.

The values are drawn from publication PMC7835958 (2021).
